Data from article PMC12170185, “Dynamic RNA binding and unfolding by nonsense-mediated mRNA decay factor UPF2”.

Tests used:
[1] = target: UPF2 MIF4G-D3 (UniProt Q9HAU5 761-1054); test: EMSA; weak unquenched complex band; FA: 25 mM HEPES pH 7.45, 150 mM NaCl, 5% glycerol, 10 nM probe, temperature not stated; EMSA: 250 nM probe in 25 mM HEPES pH 7.45, 100 mM NaCl, 5% glycerol (protein dilution buffer 300 nM [sic] NaCl, 2 mM bME or 1 mM TCEP), 1 h on ice, gel at 4 C; details: protein: recombinant; tags: C-terminal TEV site and His6; label: 5' HEX, 3' BHQ-1; hairpin with bulges
[2] = target: T1, UPF2L (UniProt Q9HAU5 121-1227); test: fluorescence spectroscopy (unquenching); FA: 25 mM HEPES pH 7.45, 150 mM NaCl, 5% glycerol, 10 nM probe, temperature not stated; EMSA: 250 nM probe in 25 mM HEPES pH 7.45, 100 mM NaCl, 5% glycerol (protein dilution buffer 300 nM [sic] NaCl, 2 mM bME or 1 mM TCEP), 1 h on ice, gel at 4 C; details: protein: recombinant; tags: C-terminal TEV site and His6; label: 5' HEX, 3' BHQ-1; hairpin with bulges
[3] = target: UPF2 MIF4G-D3;UPF3B (human?;human?, UniProt Q9HAU5;Q9BZI7 761-1054;41-262, |); test: EMSA; FA: 25 mM HEPES pH 7.45, 150 mM NaCl, 5% glycerol, 10 nM probe, temperature not stated; EMSA: 250 nM probe in 25 mM HEPES pH 7.45, 100 mM NaCl, 5% glycerol (protein dilution buffer 300 nM [sic] NaCl, 2 mM bME or 1 mM TCEP), 1 h on ice, gel at 4 C; details: protein: recombinant;recombinant; tags: C-terminal TEV site and His6;; copies: 1;1; label: 5' HEX; hairpin with bulges
[4] = target: T2, UPF1 (UniProt Q92900-2 115-914); test: as above; details: protein: recombinant; label: 5' HEX; hairpin with bulges
T2 sequence: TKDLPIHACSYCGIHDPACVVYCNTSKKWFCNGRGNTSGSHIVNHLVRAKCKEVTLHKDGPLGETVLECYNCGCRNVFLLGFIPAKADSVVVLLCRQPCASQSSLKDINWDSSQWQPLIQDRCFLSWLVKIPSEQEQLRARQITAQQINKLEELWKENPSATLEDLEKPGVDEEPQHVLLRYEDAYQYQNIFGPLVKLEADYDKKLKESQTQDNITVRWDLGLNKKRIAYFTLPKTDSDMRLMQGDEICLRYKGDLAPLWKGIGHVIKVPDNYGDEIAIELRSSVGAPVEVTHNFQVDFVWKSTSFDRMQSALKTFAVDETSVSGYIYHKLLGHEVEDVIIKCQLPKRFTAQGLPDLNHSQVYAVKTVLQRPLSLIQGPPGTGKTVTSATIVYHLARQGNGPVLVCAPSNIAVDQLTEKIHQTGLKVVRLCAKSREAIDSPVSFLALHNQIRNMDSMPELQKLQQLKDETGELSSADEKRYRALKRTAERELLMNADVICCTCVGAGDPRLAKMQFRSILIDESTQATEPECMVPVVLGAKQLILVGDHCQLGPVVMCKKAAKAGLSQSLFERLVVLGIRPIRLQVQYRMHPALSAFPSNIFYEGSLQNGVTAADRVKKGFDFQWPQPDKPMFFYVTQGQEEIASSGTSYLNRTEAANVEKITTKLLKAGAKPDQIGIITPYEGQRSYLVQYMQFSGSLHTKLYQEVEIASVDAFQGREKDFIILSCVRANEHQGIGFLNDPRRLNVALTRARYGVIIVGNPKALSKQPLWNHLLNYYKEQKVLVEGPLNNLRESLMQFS

[5] = target: UPF2L;UPF3B;UPF1 (human?;human?;human?, UniProt Q9HAU5;Q9BZI7;Q92900-2 121-1227;41-262;115-914, ||); test: as above; details: protein: recombinant;recombinant;recombinant; tags: C-terminal TEV site and His6;;; copies: 1;1;1; label: 5' HEX; hairpin with bulges
[6] = target: T1, UPF2L; test: fluorescence anisotropy; FA: 25 mM HEPES pH 7.45, 150 mM NaCl, 5% glycerol, 10 nM probe, temperature not stated; EMSA: 250 nM probe in 25 mM HEPES pH 7.45, 100 mM NaCl, 5% glycerol (protein dilution buffer 300 nM [sic] NaCl, 2 mM bME or 1 mM TCEP), 1 h on ice, gel at 4 C; details: protein: recombinant; tags: C-terminal TEV site and His6; label: 5' HEX; hairpin with bulges
[7] = target: T3, UPF3B (UniProt Q9BZI7 41-262); test: EMSA; excess UPF3B gives oligomers in well; FA: 25 mM HEPES pH 7.45, 150 mM NaCl, 5% glycerol, 10 nM probe, temperature not stated; EMSA: 250 nM probe in 25 mM HEPES pH 7.45, 100 mM NaCl, 5% glycerol (protein dilution buffer 300 nM [sic] NaCl, 2 mM bME or 1 mM TCEP), 1 h on ice, gel at 4 C; details: protein: recombinant; label: 5' HEX; hairpin with bulges
T3 sequence: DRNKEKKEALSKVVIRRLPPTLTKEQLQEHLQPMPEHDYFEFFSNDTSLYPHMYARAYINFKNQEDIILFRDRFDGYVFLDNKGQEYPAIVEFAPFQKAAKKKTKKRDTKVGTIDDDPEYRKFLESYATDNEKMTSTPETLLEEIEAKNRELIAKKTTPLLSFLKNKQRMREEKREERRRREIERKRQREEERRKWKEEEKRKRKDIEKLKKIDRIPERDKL

[8] = target: UPF2 MIF4G-D2 (UniProt Q9HAU5 455-757); test: EMSA; no defined complex band, no remodeling; FA: 25 mM HEPES pH 7.45, 150 mM NaCl, 5% glycerol, 10 nM probe, temperature not stated; EMSA: 250 nM probe in 25 mM HEPES pH 7.45, 100 mM NaCl, 5% glycerol (protein dilution buffer 300 nM [sic] NaCl, 2 mM bME or 1 mM TCEP), 1 h on ice, gel at 4 C; details: protein: recombinant; tags: C-terminal TEV site and His6; label: 5' HEX; hairpin with bulges
[9] = target: UPF2 MIF4G-D1-2 (UniProt Q9HAU5 120-757); test: as above; details: protein: recombinant; tags: C-terminal TEV site and His6; label: 5' HEX; hairpin with bulges
[10] = target: UPF2 MIF4G-D1 (UniProt Q9HAU5 120-486); test: as above; details: protein: recombinant; tags: C-terminal TEV site and His6; label: 5' HEX; hairpin with bulges
[11] = target: UPF2L;UPF3B (human?;human?, UniProt Q9HAU5;Q9BZI7 121-1227;41-262, |); test: EMSA; higher affinity than UPF2L alone, lower than UPF3B; FA: 25 mM HEPES pH 7.45, 150 mM NaCl, 5% glycerol, 10 nM probe, temperature not stated; EMSA: 250 nM probe in 25 mM HEPES pH 7.45, 100 mM NaCl, 5% glycerol (protein dilution buffer 300 nM [sic] NaCl, 2 mM bME or 1 mM TCEP), 1 h on ice, gel at 4 C; details: protein: recombinant;recombinant; tags: C-terminal TEV site and His6;; copies: 1;1; label: 5' HEX; hairpin with bulges
Sequence of UPF2L;UPF3B (Q9HAU5 121-1227, one chain of several): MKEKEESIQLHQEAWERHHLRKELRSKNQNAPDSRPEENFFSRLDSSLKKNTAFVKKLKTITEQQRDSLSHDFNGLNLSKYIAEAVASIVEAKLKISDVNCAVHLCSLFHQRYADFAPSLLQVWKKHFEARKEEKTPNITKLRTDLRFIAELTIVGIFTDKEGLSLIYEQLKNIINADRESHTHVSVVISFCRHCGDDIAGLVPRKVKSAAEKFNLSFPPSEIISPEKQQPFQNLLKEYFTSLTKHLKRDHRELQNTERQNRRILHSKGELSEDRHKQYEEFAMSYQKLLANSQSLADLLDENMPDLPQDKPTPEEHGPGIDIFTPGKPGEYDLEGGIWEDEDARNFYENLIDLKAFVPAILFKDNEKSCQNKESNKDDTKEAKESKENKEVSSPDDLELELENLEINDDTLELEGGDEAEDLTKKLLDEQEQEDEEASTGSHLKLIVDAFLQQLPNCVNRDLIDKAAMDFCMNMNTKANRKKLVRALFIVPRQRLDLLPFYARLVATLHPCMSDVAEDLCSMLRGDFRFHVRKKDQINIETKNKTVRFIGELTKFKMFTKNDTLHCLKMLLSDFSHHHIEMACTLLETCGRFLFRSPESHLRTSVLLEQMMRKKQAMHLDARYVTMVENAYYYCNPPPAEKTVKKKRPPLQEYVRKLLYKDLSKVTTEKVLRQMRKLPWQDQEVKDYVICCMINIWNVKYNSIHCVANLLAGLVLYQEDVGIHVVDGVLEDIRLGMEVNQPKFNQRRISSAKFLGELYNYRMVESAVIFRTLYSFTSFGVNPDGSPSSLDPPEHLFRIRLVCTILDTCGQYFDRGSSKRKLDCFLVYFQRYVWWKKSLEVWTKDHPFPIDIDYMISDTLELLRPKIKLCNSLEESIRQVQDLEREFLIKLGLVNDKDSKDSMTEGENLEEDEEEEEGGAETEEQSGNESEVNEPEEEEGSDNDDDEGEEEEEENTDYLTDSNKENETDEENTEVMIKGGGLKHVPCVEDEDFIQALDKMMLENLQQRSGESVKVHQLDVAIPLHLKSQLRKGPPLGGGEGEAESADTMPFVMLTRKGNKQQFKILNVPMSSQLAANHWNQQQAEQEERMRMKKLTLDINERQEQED

T1 sequence (Q9HAU5 121-1227): as the sequence (Q9HAU5 121-1227, one chain of several) above
Sequence of UPF2 MIF4G-D2 (Q9HAU5 455-757): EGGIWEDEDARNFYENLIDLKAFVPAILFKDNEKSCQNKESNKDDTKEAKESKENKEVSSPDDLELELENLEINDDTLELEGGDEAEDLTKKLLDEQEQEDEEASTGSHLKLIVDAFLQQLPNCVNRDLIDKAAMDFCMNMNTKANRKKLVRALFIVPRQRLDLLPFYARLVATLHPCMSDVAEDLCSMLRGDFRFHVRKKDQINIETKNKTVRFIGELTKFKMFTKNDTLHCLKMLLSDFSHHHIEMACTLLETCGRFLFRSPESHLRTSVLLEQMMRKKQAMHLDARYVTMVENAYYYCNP
Sequence of UPF2 MIF4G-D3 (Q9HAU5 761-1054): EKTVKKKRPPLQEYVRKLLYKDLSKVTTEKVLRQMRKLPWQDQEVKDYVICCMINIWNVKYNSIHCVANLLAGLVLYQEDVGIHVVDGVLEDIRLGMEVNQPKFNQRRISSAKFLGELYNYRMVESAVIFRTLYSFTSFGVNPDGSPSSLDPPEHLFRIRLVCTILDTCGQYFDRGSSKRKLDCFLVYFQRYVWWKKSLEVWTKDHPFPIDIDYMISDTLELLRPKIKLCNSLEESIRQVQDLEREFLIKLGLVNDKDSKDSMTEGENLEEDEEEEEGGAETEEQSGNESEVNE
Sequence of UPF2 MIF4G-D3;UPF3B (Q9HAU5 761-1054, one chain of several): as the sequence (Q9HAU5 761-1054) above
Sequence of UPF2 MIF4G-D1 (Q9HAU5 120-486): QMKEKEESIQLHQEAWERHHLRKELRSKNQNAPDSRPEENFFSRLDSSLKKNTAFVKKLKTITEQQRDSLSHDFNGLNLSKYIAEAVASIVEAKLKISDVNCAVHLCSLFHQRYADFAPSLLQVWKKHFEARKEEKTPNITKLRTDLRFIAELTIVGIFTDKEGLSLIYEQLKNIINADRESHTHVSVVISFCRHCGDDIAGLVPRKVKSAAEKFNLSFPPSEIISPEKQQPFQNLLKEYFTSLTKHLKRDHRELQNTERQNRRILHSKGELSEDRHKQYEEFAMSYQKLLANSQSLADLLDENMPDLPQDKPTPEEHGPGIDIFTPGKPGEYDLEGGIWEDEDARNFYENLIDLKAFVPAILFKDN
Sequence of UPF2L;UPF3B;UPF1 (Q9HAU5 121-1227, one chain of several): as the sequence (Q9HAU5 121-1227, one chain of several) above
Sequence of UPF2 MIF4G-D1-2 (Q9HAU5 120-757): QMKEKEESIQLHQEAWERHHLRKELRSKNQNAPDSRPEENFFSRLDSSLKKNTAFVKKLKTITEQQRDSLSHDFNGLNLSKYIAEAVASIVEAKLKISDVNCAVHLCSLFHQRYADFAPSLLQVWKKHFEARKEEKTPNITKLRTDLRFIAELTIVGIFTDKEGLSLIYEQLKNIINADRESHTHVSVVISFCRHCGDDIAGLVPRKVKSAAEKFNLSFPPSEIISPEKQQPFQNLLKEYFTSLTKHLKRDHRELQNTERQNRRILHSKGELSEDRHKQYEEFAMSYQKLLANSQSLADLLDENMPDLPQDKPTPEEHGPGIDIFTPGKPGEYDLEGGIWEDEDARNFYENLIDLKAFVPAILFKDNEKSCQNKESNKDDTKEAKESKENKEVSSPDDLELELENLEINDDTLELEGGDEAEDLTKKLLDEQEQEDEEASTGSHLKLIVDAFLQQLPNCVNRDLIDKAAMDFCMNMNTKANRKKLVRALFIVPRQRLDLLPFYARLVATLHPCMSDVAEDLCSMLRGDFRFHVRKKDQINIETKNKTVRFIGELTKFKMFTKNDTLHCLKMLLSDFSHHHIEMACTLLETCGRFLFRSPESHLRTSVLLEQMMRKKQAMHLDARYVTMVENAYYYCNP

Binder: CCCUGAGCUGACGCAGCACCUGGG (structured_RNA, 3' BHQ-1) [HEX_hp-RNA_BHQ molecular beacon]
- binding result [1]: binds
- binding result [2]: binds

Binder: CCCUGAGCUGACGCAGCACCUGGG (structured_RNA) [24 nt hp-RNA]
- binding result [3]: binds
- binding result [4]: binds
- binding result [5]: binds
- Kd [6]: 223 nM
- binding result [7]: binds
- binding result [8]: no binding
- binding result [9]: no binding
- binding result [10]: no binding
- binding result [11]: binds
